Data taken from publication PMC314469, “Protein Interaction Networks by Proteome Peptide Scanning” (PLoS Biology, 2004).

Assays:
Test in all cases: SPOT array
[1] = molecular target: T1, Boi1 SH3 (BOI1_YEAST), P38041
T1 chain: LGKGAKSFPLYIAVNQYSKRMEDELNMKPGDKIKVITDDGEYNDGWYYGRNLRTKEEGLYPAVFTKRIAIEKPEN

[2] = molecular target: T2, Boi2 SH3 (BOI2_YEAST), P39969
T2 chain: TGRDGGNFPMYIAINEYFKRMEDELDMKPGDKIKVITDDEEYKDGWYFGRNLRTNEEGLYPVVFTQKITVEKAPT

[3] = molecular target: T3, Myo5 SH3 (MYO5_YEAST), Q04439
T3 chain: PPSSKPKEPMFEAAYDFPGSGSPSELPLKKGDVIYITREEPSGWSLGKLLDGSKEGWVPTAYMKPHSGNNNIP

[4] = molecular target: T4, Rvs167 SH3 (RV167_YEAST), P39743
T4 chain: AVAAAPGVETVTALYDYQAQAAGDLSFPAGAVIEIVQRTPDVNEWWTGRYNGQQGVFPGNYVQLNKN

[5] = molecular target: Sho1 SH3 (SHO1_YEAST), P40073
[6] = molecular target: T5, Yfr024 SH3 (LSB3_YEAST), P43603
T5 chain: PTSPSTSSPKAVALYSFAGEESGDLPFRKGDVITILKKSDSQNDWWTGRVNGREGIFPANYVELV

[7] = molecular target: T6, Yhr016c SH3 (YSC84_YEAST), P32793
T6 chain: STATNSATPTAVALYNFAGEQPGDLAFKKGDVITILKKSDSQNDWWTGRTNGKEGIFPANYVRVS

[8] = molecular target: T7, Abp1 SH3 (ABP1_YEAST), P15891
T7 chain: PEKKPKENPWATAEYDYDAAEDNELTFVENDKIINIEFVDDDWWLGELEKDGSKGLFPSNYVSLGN

Sho1 SH3 (SHO1_YEAST), P40073, sequence (P40073 295-366): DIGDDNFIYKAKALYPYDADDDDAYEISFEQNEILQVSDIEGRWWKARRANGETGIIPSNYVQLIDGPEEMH

Binder | normalised SPOT signal, Boehringer light units (BLU); mean over the file's lines of this peptide [1] | normalised SPOT signal, Boehringer light units (BLU); mean over the file's lines of this peptide [2] | normalised SPOT signal, Boehringer light units (BLU); mean over the file's lines of this peptide [3] | normalised SPOT signal, Boehringer light units (BLU); mean over the file's lines of this peptide [4] | normalised SPOT signal, Boehringer light units (BLU); mean over the file's lines of this peptide [5] | normalised SPOT signal, Boehringer light units (BLU); mean over the file's lines of this peptide [6] | normalised SPOT signal, Boehringer light units (BLU); mean over the file's lines of this peptide [7] | normalised SPOT signal, Boehringer light units (BLU); mean over the file's lines of this peptide [8]
NGTWKYNPTVPNEL [YPR151C 143-156] | 72.4 | 24.2 | 173 | 87.9 | 3.7 | 381 | 22.7 | –
NGKDKSRPPRPPPK [YIL095W 742-755] | 664 | 31.9 | 2620 | 127 | 2640 | 12900 | 162 | –
ENTPRPNPTQPRKP [YDR359C 772-785] | 154 | 0 | 137 | 53.6 | 13.1 | 205 | 54.9 | 102
NELIKQGPKRPTSA [YMR072W 36-49] | 462 | 22 | 176 | 60.6 | 32.2 | 246 | 17.2 | –
VASSRTEPSTPSRP [YJL095W 1074-1087] | 120 | 10.5 | 178 | 76.3 | 62.9 | 3610 | 602 | 184
NIFQKQLPKMPKEY [YGR252W 122-135] | 646 | 203 | 276 | 555 | 16700 | 392 | 4960 | –
TIEARVHPEPPNKP [YDR330W 403-416] | 0 | 20.8 | 375 | 26.6 | 32.7 | 44.2 | 1 | 36.2
VKPTKLEPENPQKP [YFL054C 234-247] | 49.7 | 8.7 | 91.3 | 28 | 23.8 | 17 | 22.4 | 42.5
NELVKRFPGHPPLR [YHR108W 109-122] | 733 | 7.9 | 300 | 55.2 | 37.2 | 211 | 101 | –
SKDKKTKPTPPPKP [YNL020C 602-615] | 353 | 40.8 | 180 | 71.4 | 331 | 211 | 22.7 | 77200
NFPQRMMPPPPGLV [YKL204W 475-488] | 228 | 28.4 | 618 | 67.9 | 74.5 | 679 | 95.9 | –
NGMPRRIPDYPDAF [Q0045 434-447] | 404 | 318 | 223 | 338 | 28.9 | 1300 | 858 | –
YTYSRNEPVIPTKP [YNL139C 1275-1288] | -0 | -0 | 210 | 68.4 | 44.7 | 242 | 15.9 | 224
RPKRRAPPPVPKKP [YIR003W 383-396] | 1170 | 26.1 | 67400 | 1050 | 5190 | 6360 | 114 | 80000
NESEKSSPWSPYKV [YBR156C 157-170] | 96.5 | 28.4 | 222 | 74.7 | 26.5 | 408 | 30.5 | –
